Sequences and labels used below:
B1: QP190191 (antibody, V domains shown)
VH: EVKLVESGGGLVKPGGSLKLSCAASGFTFSNYAMSWVRQTPEKRLEWVASIISGGRTYYLDSEKGRFTISRDNARNNLYLQMSSLRSEDTAMYYCTRIYYGNSFDYWGQGTTLTVSS
VL: DIVMTQSPSSQTVTAGEKVTMSCKSSQSLLNSGNQKNYLTWYQQKPGQPPKLLIYWASTRESGVPDRFTGSGSGTDFTLTISNMQAEDLAVYYCQNDYSYPFTFGSGTKLEIK
B2: QP207208 (antibody, V domains shown)
VH: EVQLQQSGPELVKPGASVKMSCKASGYTFTSYIMHWVKQKPGQGLEWIGYINPYNDGTKYNEKFKGKATLTSDKSSSTVYMELSSLTSEDSAVYCCARLGFTTRNAMDYWGQGTSVTVSS
VL: B1 VL with Q11L, T12S, T14S, S22N, T40A, W56G, N83S, M84V, Y98H
B3: QP201202 (antibody, V domains shown)
VH: EVQLQQSGPELVKPGASVKMSCKASGYTFTNYFVHWVKQKPGQGLEWIGYINPYNDDTKYNEKFKGKATLTSDKSSSTAYMDLSSLTSEDSAVYYCLSLRFFAYWGQGTLVTVSA
VL: B1 VL with Q11L, P49A, T69I, N83H, M84V, Y93F, F102L, S106A, K109N, I112L
B4: QP192193 (antibody, V domains shown)
VH: QVQLQQSGAELVRPGSSVKISCKASGYAFSSYWMNWVKQRPGQGLEWIGQIYPGNGDTTYNGKFKGQATLTADKSSSTVYMQLSSLTSEDSAVYFCARFVKGNAMDYWGQGTSVTVSS
VL: B1 VL with Q11L, K45N, L52M, T75I, T78S, N83S, M84V, V91L, D97A

Where a chain is given by its changes, count along the chain named.

The assay addresses claudin 18.2 (isoform 2 subtype of CLDN18) (UniProt P56856). Briefly: FACS, 5 ug/ml antibody on dissociated GA0006 gastric cancer PDX tumor cells, PE anti-human IgG Fc.
As to IMAB362 (Claudiximab) (antibody), the Ratio of antibody-bound cells was 85.6%.

On to B1, for which the Ratio of antibody-bound cells stood at 91.5%.

As for B2, the Ratio of antibody-bound cells amounted to 91.7%.

As to B3, the Ratio of antibody-bound cells was 90%.

B4: the Ratio of antibody-bound cells was 92.4%.

The values above are taken from patent publication US20220235128A1.
